Paper PMC4687524, “Molecular Properties and Functional Divergence of the Dehydroascorbate Reductase Gene Family in Lower and Higher Plants” (PLoS ONE, 2015)
Blank lines part the entries; values can stand above or below the molecule they belong to.

Columns and labels:
Experiment in all cases: A265 increase (ascorbate formation), nonlinear regression
[1] = system: T1, ZmDHAR2; assay type: biochemical, Zea mays; details: 0.42 mM GSH; DHA 0.013-1.677 mM; 90 mM potassium phosphate pH 6.5, 25 C; read-out: Kinetic constants / K m ^DHA
T1 construct: gene DHAR2; clade I
From the text: A265 increase (ascorbate formation), nonlinear regression on ZmDHAR2

[2] = substrate: O=C1O[C@H]([C@@H](O)CO)C(=O)C1=O; assay type: biochemical, Selaginella moellendorffii; details: 0.42 mM GSH, DHA 0.013-1.677 mM, 90 mM potassium phosphate pH 6.5, 25 C
From the text: A265 increase (ascorbate formation), nonlinear regression on SmDHAR1

[3] = substrate: O=C1O[C@H]([C@@H](O)CO)C(=O)C1=O; assay type: biochemical, Picea abies; details: 0.42 mM GSH, DHA 0.013-1.677 mM, 90 mM potassium phosphate pH 6.5, 25 C
From the text: A265 increase (ascorbate formation), nonlinear regression on PabDHAR2

Km [1]: 68 ± 9 µM
Molecule: O=C1O[C@H]([C@@H](O)CO)C(=O)C1=O [dehydroascorbate]

B1: SmDHAR1 (Selaginella moellendorffii) (protein)
chain: MAVATTEAVEVLVKAANGDPSRLGDCPFSQRVLLTLEEKGIPYNSKFVDMENKPAWFLEANPEGKVPVVKDDGKWVADSDVITQLIETKFPSPSLVTPPEKSSVGSKIFSSFVKFLKSKDPSDGSEAALLEELKTLDEYLAKNGPFVNGSNISAVDLSLAPKLYHLKIALGHYKQWSVPQNLTNLNSYMEALFKRESFQKTMAPAEVVVKGWAKHLSA
notes: full length without predicted signal peptide, N-terminal 6xHis (pET-30a), E. coli BL21(DE3), Ni Sepharose; cytosolic, clade I
Km [2]: 115 ± 4 µM

B2: PabDHAR2 (Picea abies) (protein)
chain: MSDLEIFSKAAPGTGSPSKERGDCPFSQRIFLELEELGLPYTATYIQEGADKPHWFMEKNPSGLMPVLRDRETWIQDSDKIAQYLDDHYAENTLRTQVEFKNVGSKIFPIFTKWLQCKDPNSACRDEFVDELVGFDRHLQNHGPYIAGKRPTDSDFALAPKLRHARVALAHFMDFQFPRELGALQNYMNRMESRESFEKTNYPNDMIIQGWRAKFNLPEKIANAS
notes: full length without predicted signal peptide, N-terminal 6xHis (pET-30a), E. coli BL21(DE3), Ni Sepharose; cytosolic, clade II, five exons
Km [3]: 118 ± 1 µM
